Experiment: yeast display, Sf9 membrane polyspecificity reagent, FACS + sequencing; frameworks hold sequencing errors
Outline: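 Nanobodies from a synthetic yeast display library (Saccharomyces cerevisiae BJ5465), induced 36–48 hours with galactose, were stained 1 hour at 4 °C with 10% biotinylated, detergent-solubilized Sf9 membrane reagent, enriched on streptavidin microbeads, then FACS-sorted. Anti-HA (expression) and streptavidin (reagent binding) fluorescence set low and high (top ~1%) gates. Polyreactivity labels come from the gate of origin. Genes were colony-PCR amplified, MiSeq 2 × 250 sequenced and filtered by CDR length.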

Row | Sequence | polyreactivity (PSR sort gate)
1 | QVQLVESGGGIVQAGGSLRLSCADSGITFKYYAMGWYRQAPGKERQWVAAISRSGGSTYYADSVKGRFTISRDNAKNTVYLQMNSLIAEDTAVYYCNAELYSVYLGFGYWGQGTQVTVSS | high polyreactivity
2 | QVQLVESGGGLVQAGGSLRLSCAASGFIFVVYDMGWYRQAPGKERELVAGIDTSGADTYYADSVKGRFTISRDNAKNTVYLQMNRLKPEDPAVYYCAAETITDDYYEYDYWGQGTQVTVSS | low polyreactivity
3 | QVQLVESGGGLVQAGGSLRLSCAASGLTFASNAMGWYRQAPGKERELVAAISWSDGSTYYADSVKGRFTISRDNAKNTVYLQMNSLKPEDTAVYYCAADPPGFRTYRVGYWGQGTQVTVSW | low polyreactivity
4 | QDHHVESGGGLVQAGGSLRLICAASGSTFSWNTMGWYRPAPGKERDLVAAISWSTGRTYYADSVKGRFTISRDNAKNTVYLQMISLKPEDTAVYYCAARRFVTDGTRREYDYWGQGTQVTVSS | high polyreactivity
5 | QVQLVETGGGLVQAGGSLRLSCAASGSIFYPNAMGWYRQAPGKERELVAAISSSGGTNYADSVKGRFTISRDNAKNTVYLQMNSLKPEDTAVYYCNARDKVRYRYSRMDYWGQGTQVTVSS | low polyreactivity
6 | QVQLVESGGGLVQAGGSLRLSCAASGFIFNRYAMGWYRQAPGKERELVATITRRGGRTYFADSVKGRFTISRDNAKNTVYLQMNSLKPEDTAVYYCNADPNVPVETFDYWGQGTQVTVSS | high polyreactivity
7 | QVQLVESGGGLVQAGGSLRLSCAASGRISVRIYAMGWYRQAPGKERELVAIISRSGGSTYYADSVKGRFTISRDNAKTTVYLQMNSLKPQDTAVYYCNARWSFSYTVWVASYWCLDDYWGQGTQVTVSS | high polyreactivity
8 | QVQLVESGGGLVQAGGSLRLSCAASGRTFVWYAMGWYRQAPGKERELVAAITLSGGSTYYADSVKGRFTISRDNAKNTVYLQMNSLKPEDTAVYYCAADGTYRPEDYDYWGQGTQVTVSS | low polyreactivity
9 | QVQQQESGGGLVQAGGSLRLSCAASGTIFQLTVMGRYRQAPGKERELVASIDYGGNTNYADSVKGRFTISRDNAKYTVYLLMISLKPEDTAVYYCAASSVSWTTHPYWGQGTQVTVSS | low polyreactivity
10 | QVQLVESGGGLVQAGGSLRLSCAASGDIFDAYAMGWYRQAPGKERELVAAISRSGGSTYYADSVKGRFTISRDNAKNTVYLQMNSLKPEDTAVYYCATRFSRRYVRYDYWGQGTQVTVSS | high polyreactivity
11 | QVQLVESGGGLVQAGGSHRLSCAASGSIFNLYTMGWYIQAPGKERELVAAIRWSGGRTYYADSVKGRFTISRDNAKNTVYLQMNSLKAEDTAVYYCAVRRVVARYDHWGQGTQVTVSS | low polyreactivity
12 | QVQLVESGGGLVQAGGSLRLSCAASGTTFAYYAMGWYRQAPGKERELVAVISVRGGSTYYADSVKGRFTISRDNAKNTVYLQMNSLKPEDTAVYYCAADTFAGYYYWGQGTQVTVSS | high polyreactivity
13 | QVQLVESGGGLVQAGGSLSLSCAASGSTYLDYTMGWYIQAPGKERELVAVISYRAGSTYYADSVKGRFTISRDNAKNTVYLLMHSLKPEDTAVYYCNADYYNYWRRRRYVWYESWGQGTQVTVSS | low polyreactivity
14 | QVQLVESGGGLVQAGGSLRLIGAASGRSLYVYEMGWYRQAPGNDRELVAAISRGGGRTYYADSVKRRFTISRDKAKNTVYVQRNSLKPEDTAVYYGAAPLLIGVSTYRIAPRSGYWGQGTQVTLSS | high polyreactivity
15 | QVQLVESGGGLVQAGGSLRLSCAASGSIFVHYAMGWYRQAPGKERELVARISWRGNTYYADSVKGRFTISRDNAKNTVYLQMNSLKPEDTAVYYCAAEYFWYYYYLMDYWGQGTQVTVSS | low polyreactivity
16 | QVQLVESGGGLVQAGGSLRLSCAASGSIFYRNAMGWYRQAPGKERELVAAITSRGGRTYYADSVKGRFTISRDNAKNTVYLQMTSLKPEDTAVYYCAADYRYPAHSYGYWGQGTQVTVSS | high polyreactivity
17 | QVQLVESGGGLVQAGGSLRLSCAASGLIFSRYAMGWYRQGPGKERELVAASSGGGGSTYYADSVKGRFTISRDNAKNTVYLQMNSLKPEDTAVYYSARKYTRKIPASDYWGQGTQVTVSS | high polyreactivity
18 | QFQLVESGGGLVQAGGSLRLSCAASGRTFKVYAMGCYRQAPGKERELVAAITGGGSTNYADSVKGRFTISRDNAKNTVYLQMNSLKAEDTAVYYCNARYYYRLVKWSRFSSYDFWGQGTQVTVSS | low polyreactivity
19 | QVQLVESGGGLFQAGGSLRLSCAASGSIFLYYAMGWYRQAPGKERELDATIRRRDGSTYYADSVKGRFTISRDNAKNTVYLQMNSLIPEDTAVYYCNTAGYYWLHYTMDYWGQVTQVTVSS | high polyreactivity
20 | QVQLVESGGGLVQAGGSLRLSCAASGSIFWYYDMGWYRQAPGKERELVATISRTGRTYYADSVKGRFTISRDNAKNTVYLQMNSLKPEDTAVYYCAAVPRGWFSYPSGYDYWGQGTQVTVSS | high polyreactivity
21 | QVQLVESGGGLVQAGGSLRLSCAASGFTFNYNTMGWYRQAPGKERELVARISRSGGRTYYADSVKGRFTISRDNAKNTVYLQMNSLKPEDTAVYYCNTDYYGVRHRYDYWGQGTQVTVSS | high polyreactivity
22 | QVQLVESGGGLVQAGGSLRLSCAASGSISVDNTMGWYRQAPGKERELVAAISRSGGTTYYADSVKGRFTISRDNAKNTVYLQMNSLKPEDTAVYYCAKDTLRYRWRSYDYYPEMNYWGQGTQVTVSS | low polyreactivity

Row | Sequence | polyreactivity (PSR sort gate)
23 | QVQLVESGGGLVQAGGSLRLSCAASGSTIPYYAMGWYRQAPGKERELVARIRWNGDSTFYADSVKGRFTISRDNAKNTVYLQMNSLKTEDSAVYYCAAYGKRLGERLNYYYWGQGTQVTVSS | high polyreactivity
24 | QVQLVESGGGLVQAGGSLRLSCAASGRIFRPNTMGWYRQAPGKERELVASISLSAGSTYYADSVKGRFTISRDNAKNTVFLQMNSLKPEDTAVYYCNATYLSWYRYKYNYWGQGTQVTVSS | low polyreactivity
25 | QVQLVESGGGLVQAGGSLRLICAASGSIFVNNGMGWYRQAPGKERELVAAIRLSTGSTYYADSVKGRFPISRDNAKNTVYLQMNSLKPEDTAVYYCATRYYIWGNWGQGTQVTVSS | high polyreactivity
26 | QVQLVESGGGLVQAGGSLRLSCAASGRIFAGYALGWYRQAPGKERELVAAITFRSGTTYYADSVKGRFTISRDNAKNTVYLQMHSLKPEDTAVYYCAARWGPYAFTYVRTYDYWGQGTQVTGSS | low polyreactivity
27 | QVQLVESGGGLVQAGGSLRLSCAASGFIFYSNAMGWYRQAPGKERELVAAISRGGGSTYYADSVKGRFTISRDNAKNTVYLQMNSLKPEDTAVYYCAAELYRWYYYWGQGTQVTVSS | high polyreactivity
28 | QVQLVESGVGLVQAGGSLRLSCAASGIIFTSNTMGWYRPAPGKEREFVASINWNGSSTYADSVKGRFTISRDNAKNTVYLQMNSLKPEDTAVYYCNADYKRNSVQFSLYDYWGQGTQVTVSS | low polyreactivity
29 | QVQLVETGGGLVQAGGSLRLSCAASGRTIRKYAMGWYRQAPGKERELVAAISWSGGSTYYANSVKGRFTISRDNAKNTVYLQMKSLKPVDTEVYYCAAVPVHTGSLYWGFTTGYDYWGQGTQVTVSS | low polyreactivity
30 | QVQLVESGGRLVQAGGSLRLSCAASGSTSTLYAMGWYRQAPGKERELVAAISKSGGRTYYADSVKGRFTISRDNAKNTVYLQMNSLKPEDTAVYYCNTVPGRYRTFDYWGQGTQVTVSS | high polyreactivity
31 | QVQLVDSGGGLVQAGGSLRLSCAASGGTFKYYAMGWYRQAPGKERELVAAITWSGGSTYYADSVKGRFTISRDNAKNTVYLQMNSLKPEDTAVYYCNAAYSQIRFNYWGQGTQVTVSS | high polyreactivity
32 | QVQLVESGGGLVQAGGSLRLSCAASGITFWYYTMGWYRQAPGKERELVARITSGSRTSYADSVKGRFTISRDNAKNTVYLQMNSLKPEDTAVYYCAAGSYADRLWSKYNYWGQGTQVTVSS | high polyreactivity
33 | QVQLVETGGGLVQAGGSLRLSCAASGSIFIWYAMGWYRQAPGKERELVAAIRSGGSTYYADSVKGRFTISRDNAKNTVYFQMNRLKPEDTAVYYCAKVLSWRGNRYNYWGQGTQVTVSS | low polyreactivity
34 | QVQLVESGGGLVQAGGRLRLSCAASGSIFRRYAMGWYRQAPGKERELVAAISSTPITYYADSVKGRFTISRDNAKNTVYLQMNSLKPEDTAVYYCAAELLLSYYYGLEDDYWGQGTQVTVSS | low polyreactivity
35 | QVQLVESGGGLVQAGGSLRLSCAASGSIFSWYAMGWYRQAPGKERELVAAIDSGSKYYADSVKGRFTISRDNAKNTVYLQMNSLKPEDTAVYYCAVDYGYYYWEPWPSDYDMYSWGQGTQVTVSS | high polyreactivity
36 | QVQLVESGGGLVQAGGSLRLSCAASGSIFTEYAMGWYRQAPGKERELVAAISWSGATTYYADSVKGRFTISRDNAKNTVYLQMNSLKPEDTAVYYCAARWANRSYEYWGQGTQVSVSS | low polyreactivity
37 | QVQLVESGGRLVQAGGSLRLSCAASGSIFYYNVMGWYRQAPGKERELVAAIDIDGSTYYADSVKGRFTISRDNAKNTVYLQMNSLKPEDTAVYYCAADVHTPALYTYAAGDYWGQGTQVTVSS | low polyreactivity
38 | QVQLVESGGGLVQAGGSLRLSCAASGRIFHYYMGWYRQAPGKERELVAVISSGDGTYYADSVKGRFTISRDNAKNTVYLQMNSLKPEDTAVYYCAADAPREYVDHYKYDDDYWGQGTQVNVSS | low polyreactivity
39 | QVQLVESGGGLVQAGGSLRLSCAASGLTINPNAMGWYRPAPGKERELVAAIDWSGGSTYCADSVKGRFTISRDNAKNTVYLQMNSLKPEDTAVYYSAADPPDRLFLYDYWGQGTQVTVSS | low polyreactivity
40 | QVQLVESGGGLDQAGGSLRLSWAASAFIFGLYAMGWYRQAPGKERELVAAITSVESTKYADSVKGRFTISRDHAKNTVYLQMNSLKPEDTAVYYCATDWSLEDDYWGQGTQVTVSS | low polyreactivity
41 | QVQLVESGGGLVQAGRSLRLTCAASGRIFNPYAMGWYRQAPGKERELVAAISRGGRTYYADSVKGRFTISRDNAKNTVYLQMNSLKPEDTAVYYCNAGRGLREDDYWGQGTQVTVSS | low polyreactivity
42 | QVQLVESGGGLVQAGGSLRLSCAASGSTFIYYAMGWYRQAPGKEWELVAAITSAGRTNYADSVKGRFTISLDNAKHTVYLQMNSLKPEDTAVYYCAAAYRPRKHHYDYWGQGTQVTVSS | high polyreactivity
43 | QVQLVESGGGLVQAGGSLRLSCAASGRTIPWNVMGWYRQAPGKERELVATITSRRTSTNYADSVKGRFTISRDNAKNTVYLQMNSLKPEDTAVYYCARRTVWGAGHYYYWGQGTQVTVSS | high polyreactivity
